According to PMC9245003:

Legend:
Assay in all cases: SEC-MALS
[1] = target: gH/gL 7-mer nanoparticle (gH-C153T-IMX313 / gL) (Epstein-Barr virus | Gallus gallus) (UniProt P03231)
[2] = target: gH/gL 24-mer nanoparticle (gH-ferritin / gL) (Epstein-Barr virus | Helicobacter pylori) (UniProt P03231)
[3] = target: gH/gL 60-mer nanoparticle (gH-C153T-I3 / gL) (Epstein-Barr virus) (UniProt P03231)

## gH/gL 7-mer nanoparticle (gH-C153T-IMX313 / gL) (from UniProt P03231;P03212) (complex)
[1]
  stoichiometry N: 7

## gH/gL 24-mer nanoparticle (gH-ferritin / gL) (from UniProt P03231;P03212) (complex)
[2]
  stoichiometry N: 24

## gH/gL 60-mer nanoparticle (gH-C153T-I3 / gL) (from UniProt P03231;P03212) (complex)
[3]
  stoichiometry N: 60
